Where a chain is given by its changes, count along the chain named.
T1: IL-36R naturally expressed on OVCAR8 cells and on normal human epidermal keratinocytes (NHK cells) (human, UniProt Q9HB29 20-575)
T1 sequence (looked up): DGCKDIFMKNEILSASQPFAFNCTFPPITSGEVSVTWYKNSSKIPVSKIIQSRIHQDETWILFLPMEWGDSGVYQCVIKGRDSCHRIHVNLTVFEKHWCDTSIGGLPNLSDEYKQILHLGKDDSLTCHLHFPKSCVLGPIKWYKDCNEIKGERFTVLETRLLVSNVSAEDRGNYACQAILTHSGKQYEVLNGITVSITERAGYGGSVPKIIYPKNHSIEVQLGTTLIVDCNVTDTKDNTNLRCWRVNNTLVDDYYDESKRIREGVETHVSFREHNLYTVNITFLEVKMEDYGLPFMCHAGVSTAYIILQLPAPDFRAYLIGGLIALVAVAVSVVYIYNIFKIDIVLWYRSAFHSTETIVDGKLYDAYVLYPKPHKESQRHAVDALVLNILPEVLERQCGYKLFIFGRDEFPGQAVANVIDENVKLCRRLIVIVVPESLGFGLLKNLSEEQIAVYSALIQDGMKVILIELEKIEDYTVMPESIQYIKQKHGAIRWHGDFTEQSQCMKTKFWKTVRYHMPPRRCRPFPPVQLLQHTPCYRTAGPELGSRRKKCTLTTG

T2: Human IL-1Rrp2/IL-1R6 protein, His Tag (ACROBiosystems, IL2-H52H6) (human, UniProt Q9HB29 20-335)
T2 construct: Bought protein; the soluble protein is likely only the extracellular part; also called hIL-36R; human IL36R antigen; not shown: His tag
T2 sequence: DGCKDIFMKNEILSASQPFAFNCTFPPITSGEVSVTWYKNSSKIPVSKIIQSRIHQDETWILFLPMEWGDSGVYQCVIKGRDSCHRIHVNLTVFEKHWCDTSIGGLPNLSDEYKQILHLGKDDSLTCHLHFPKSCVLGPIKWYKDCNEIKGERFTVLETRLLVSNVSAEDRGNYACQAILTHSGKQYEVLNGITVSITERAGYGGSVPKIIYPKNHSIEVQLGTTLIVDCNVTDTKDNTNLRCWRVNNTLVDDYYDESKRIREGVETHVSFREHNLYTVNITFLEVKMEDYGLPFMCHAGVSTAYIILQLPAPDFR

B1: hz84C4-1.1 (antibody, human IgG4 S228P, kappa, V domains shown)
VH: QVQLVQSGAEVKKPGASVKVSCKASGYFFTSYWMNWVRQAPGQGLEWMGMIHPYDSETRYAQKFQGRVTMTVDKSTSTVYMELSSLRSEDTAVYYCASSTTAFAYWGQGTLVTVSS
VL: DIQMTQSPSSLSASVGDRVTITCRASQDIGNALNWYQQKPGKAPKRLIYATSSLDPGVPSRFSGSRSGTDFTLTISSLQPEDFATYYCLQYASSPYTFGQGTKVEIKR
notes: Humanized, human IgG4 / kappa
B2: hz84C4-1.3 (antibody, human IgG4 S228P, kappa, V domains shown)
VH: B1 VH with H52Y
VL: B1 VL
notes: Humanized, human IgG4 / kappa
B3: hz84C4-2.4 (antibody, human IgG4 S228P, kappa, V domains shown)
VH: B1 VH with F28Y, Y60L, Q65K
VL: B1 VL with Y36L, F71Y
notes: Humanized, human IgG4 / kappa
B4: hz84C4-1.2 (antibody, human IgG4 S228P, kappa, V domains shown)
VH: B1 VH with M50Y
VL: B1 VL
notes: Humanized, human IgG4 / kappa
B5: hz84C4-2.5 (antibody, human IgG4 S228P, kappa, V domains shown)
VH: B1 VH with A24V, R38N, Y60L, Q65K
VL: B1 VL with Y36L, F71Y
notes: Humanized, human IgG4 / kappa
B6: hz84C4-1.4 (antibody, human IgG4 S228P, kappa, V domains shown)
VH: B1 VH with F28Y, Y60L, Q65K
VL: B1 VL
notes: Humanized, human IgG4 / kappa
B7: hz84C4-1.5 (antibody, human IgG4 S228P, kappa, V domains shown)
VH: B1 VH with A24V, R38N, Y60L, Q65K
VL: B1 VL
notes: Humanized, human IgG4 / kappa
B8: hz84C4-2.3 (antibody, human IgG4 S228P, kappa, V domains shown)
VH: B1 VH with H52Y
VL: B1 VL with Y36L, F71Y
notes: Humanized, human IgG4 / kappa
B9: hz84C4-2.1 (antibody, human IgG4 S228P, kappa, V domains shown)
VH: B1 VH
VL: B1 VL with Y36L, F71Y
notes: Humanized, human IgG4 / kappa
B10: hz84C4-2.2 (antibody, human IgG4 S228P, kappa, V domains shown)
VH: B1 VH with M50Y
VL: B1 VL with Y36L, F71Y
notes: Humanized, human IgG4 / kappa

Target: T1, IL-36R naturally expressed on OVCAR8 …
Assay: cell-based or functional assay

Going from B1 to B2, the “IC50 (M); hIL36α; IL-8 production” value rises from 2.62e-11 M to ~2.41e-09 M (92-fold).

First: B3
Second: B4
The “IC50 (M); hIL36α; IL-8 production” value of the first is 2.2-fold lower: 4.68e-11 M for the first, 1.02e-10 M for the second.

B5 and B6 are within 1.5-fold of each other in “IC50 (M); hIL36α; IL-8 production” value: 4.81e-11 M for the first, 3.71e-11 M for the second.

Going from B7 to B8, the “IC50 (M); hIL36α; IL-8 production” value falls from 2.87e-11 M to ~9.24e-13 M (31-fold).

First: B9
Second: B10
The “IC50 (M); hIL36α; IL-8 production” value of the first is 1.6-fold lower: 5.23e-11 M for the first, 8.45e-11 M for the second.

First: B1
Second: B2
The “IC50 (M); hIL36αβγ; IL-8 production” value of the first is 8.1-fold higher: 5.25e-11 M for the first, ~6.51e-12 M for the second.

Compared with B3, B4 is 2.4-fold lower in “IC50 (M); hIL36αβγ; IL-8 production” value: 1.57e-10 M for the first, 6.67e-11 M for the second.

B5 and B6 are within 1.5-fold of each other in “IC50 (M); hIL36αβγ; IL-8 production” value: 6.61e-11 M for the first, 5.76e-11 M for the second.

Going from B7 to B8, the “IC50 (M); hIL36αβγ; IL-8 production” value rises from 2.77e-11 M to 8.23e-11 M (3-fold).

B9 and B10 are within 1.5-fold of each other in “IC50 (M); hIL36αβγ; IL-8 production” value: 4.82e-11 M for the first, 6.63e-11 M for the second.

Going from B1 to B2, the “IC50 (M); hIL36β; IL-8 production” value rises from 2.27e-11 M to ~1.43e-09 M (63-fold).

First: B3
Second: B4
The “IC50 (M); hIL36β; IL-8 production” value of the first is 6.8-fold higher: 6.52e-11 M for the first, 9.53e-12 M for the second.

Compared with B5, B6 is 2.8-fold higher in “IC50 (M); hIL36β; IL-8 production” value: 1.24e-11 M for the first, 3.48e-11 M for the second.

Compared with B7, B8 is 1.8-fold higher in “IC50 (M); hIL36β; IL-8 production” value: 1.55e-11 M for the first, ~2.73e-11 M for the second.

B9 and B10 are within 1.5-fold of each other in “IC50 (M); hIL36β; IL-8 production” value: 3.18e-11 M for the first, 4.64e-11 M for the second.

First: B1
Second: B2
The “IC50 (M); hIL36γ; IL-8 production” value of the first is 150-fold lower: 1.44e-11 M for the first, 2.13e-09 M for the second.

Compared with B3, B4 is 3.3-fold lower in “IC50 (M); hIL36γ; IL-8 production” value: 1.12e-11 M for the first, 3.42e-12 M for the second.

Compared with B5, B6 is 1.7-fold lower in “IC50 (M); hIL36γ; IL-8 production” value: 8.4e-12 M for the first, 5.01e-12 M for the second.

Going from B7 to B8, the “IC50 (M); hIL36γ; IL-8 production” value rises from 1.27e-11 M to 8.76e-10 M (69-fold).

Going from B9 to B10, the “IC50 (M); hIL36γ; IL-8 production” value rises from 1.81e-11 M to 6.21e-11 M (3.4-fold).

Going from B1 to B2, the “Maximum inhibition rate %; hIL36α; IL-8 production” value falls from 103% to 16.9%.

Compared with B3, B4 is lower in “Maximum inhibition rate %; hIL36α; IL-8 production” value: 95% for the first, 92.5% for the second.

Going from B5 to B6, the “Maximum inhibition rate %; hIL36α; IL-8 production” value falls from 99.7% to 94.4%.

Going from B7 to B8, the “Maximum inhibition rate %; hIL36α; IL-8 production” value falls from 101% to 44.5%.

Going from B9 to B10, the “Maximum inhibition rate %; hIL36α; IL-8 production” value falls from 99.5% to 95.1%.

First: B1
Second: B2
The “Maximum inhibition rate %; hIL36αβγ; IL-8 production” value (from here on “Maximum inhibition rate %; hIL36αβγ”) of the first is higher: 93.7% for the first, 40.7% for the second.

Compared with B3, B4 is lower in “Maximum inhibition rate %; hIL36αβγ” value: 95.6% for the first, 82.8% for the second.

Compared with B5, B6 is lower in “Maximum inhibition rate %; hIL36αβγ” value: 98.5% for the first, 92.5% for the second.

Going from B7 to B8, the “Maximum inhibition rate %; hIL36αβγ” value falls from 97% to 33.1%.

Compared with B9, B10 is lower in “Maximum inhibition rate %; hIL36αβγ” value: 107% for the first, 100% for the second.

Compared with B1, B2 is lower in “Maximum inhibition rate %; hIL36β; IL-8 production” value (from here on “Maximum inhibition rate %; hIL36β”): 103% for the first, 19.4% for the second.

Going from B3 to B4, the “Maximum inhibition rate %; hIL36β” value falls from 92.7% to 91.2%.

Compared with B5, B6 is lower in “Maximum inhibition rate %; hIL36β” value: 102% for the first, 93.5% for the second.

Compared with B7, B8 is lower in “Maximum inhibition rate %; hIL36β” value: 101% for the first, 23.4% for the second.

Compared with B9, B10 is lower in “Maximum inhibition rate %; hIL36β” value: 96.8% for the first, 95.8% for the second.

First: B1
Second: B2
The “Maximum inhibition rate %; hIL36γ; IL-8 production” value (“Maximum inhibition rate %; hIL36γ” below) of the first is higher: 103% for the first, 57.5% for the second.

Going from B3 to B4, the “Maximum inhibition rate %; hIL36γ” value falls from 101% to 98.3%.

Compared with B5, B6 is higher in “Maximum inhibition rate %; hIL36γ” value: 103% for the first, 109% for the second.

Compared with B7, B8 is lower in “Maximum inhibition rate %; hIL36γ” value: 109% for the first, 57% for the second.

Going from B9 to B10, the “Maximum inhibition rate %; hIL36γ” value falls from 97.5% to 15%.

Target: T2, Human IL-1Rrp2/IL-1R6 protein, His Tag …
Assay: ELISA, plate coated with human IL-1Rrp2/IL-1R6 His Tag, HRP-protein A/G, OD450
Protocol: The binding activity of anti-IL-36R antibodies to IL-36R was analyzed by ELISA using human IL-1Rrp2/IL-1R6 protein, His Tag (ACROBiosystems, IL2-H52H6) and CynoIL36R-ECD mFc (for detection of chimeric and humanized antibodies), and hIL36R-ECD hFc and CynoIL36R-ECD hFc protein (for detection of hybridoma antibodies) as antigens. A 96-well plate (Costar, 9018) was coated with 2 μg/mL antigen at 100 μL/well and incubated overnight at 4° C. After the 96-well plate was washed with a washing buffer (PBS containing 0.05% v/v Tween 20), a blocking buffer (PBS containing 2% bovine serum albumin) was added for blocking at 37° C. for 2 h. After the 96-well plate was washed with the washing buffer, 100 μL of the gradient diluted anti-IL-36R antibody of the present disclosure or the reference antibody BI655130 (the initial concentration of the antibody was 66 nM, 4-fold gradient dilution) was added to each well, and the plate was incubated at room temperature for 1 h. After the 96-well plate was washed with the washing buffer, 100 μL of horseradish peroxidase-conjugated recombinant protein A/G (TheroScientific, 32490) was added to each well, and the plate was incubated at room temperature for 1 h. After the 96-well plate was washed with the washing buffer, 100 μL of a TMB solution (Thermo, 00-4201-56) was added to each well, and the plate was incubated at room temperature for 2 min. Finally, 100 μL of a stop solution (2 N H₂SO₄) was added to each well to stop the reaction. Absorbance was read at 450 nm using a microplate reader (PE, Envision), the resulting data was analyzed using GraphPad Prism, and EC₅₀ was calculated. Binding EC₅₀ of the chimeric anti-IL-36R antibodies to hIL-36R in an ELISA assay is shown in FIG. 1. and binding EC₅₀ of the chimeric anti-IL-36R antibodies to CynoIL-36R in an ELISA assay is shown in FIG. 2. The binding of BI655130 is shown as a control, and the binding of IgG4 is shown as a negative control.

First: B1
Second: B2
The EC50 of the first is 6.7-fold lower: 0.509 nM for the first, 3.41 nM for the second. The first is the more potent here.

B3 and B4 are within 1.5-fold of each other in EC50: 0.453 nM for the first, 0.531 nM for the second.

B5 and B6 are within 1.5-fold of each other in EC50: 0.497 nM for the first, 0.684 nM for the second.

First: B7
Second: B8
The EC50 of the first is 3.6-fold lower: 0.624 nM for the first, 2.25 nM for the second.

B9 and B10 are within 1.5-fold of each other in EC50: 0.558 nM for the first, 0.533 nM for the second.

Reference: patent publication US20240270857A1 (CHIA TAI TIANQING PHARMACEUTICAL GROUP, published 2024)
